The sequences below were run on Escherichia coli TOP10 (assay: shrunken log2 fold change of peptide-encoding DNA abundance (4.5 h post-induction vs induction); higher = less antimicrobial activity (less host growth inhibition)). Details: time post-induction: 4.5 h; library: site-saturation at positions 5, 18, 19, 20.
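Also: peptides expressed intracellularly from a pBAD plasmid library in pooled LB shake-flask culture, induced with 0.3% L-arabinose, DNA abundance read by NGS, three biological replicates, DESeq2 with apeglm shrinkage.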

Row | Sequence | shrunken log2 fold change
1 | RRIRWRPPRLPRPRPRPVAYPRP | -0.0891
2 | RRIRWRPPRLPRPRPRPVCTPRP | 0.26
3 | RRIRWRPPRLPRPRPRPVDGPRP | 0.0816
4 | RRIRWRPPRLPRPRPRPVDSPRP | 0.183
5 | RRIRWRPPRLPRPRPRPVDYPRP | 0.0136
6 | RRIRWRPPRLPRPRPRPVFAPRP | 0.394
7 | RRIRWRPPRLPRPRPRPVFDPRP | 0.138
8 | RRIRWRPPRLPRPRPRPVGDPRP | 0.33
9 | RRIRWRPPRLPRPRPRPVGQPRP | 0.413
10 | RRIRWRPPRLPRPRPRPVKCPRP | -0.015
11 | RRIRWRPPRLPRPRPRPVKGPRP | -0.0905
12 | RRIRWRPPRLPRPRPRPVKYPRP | -0.632
13 | RRIRWRPPRLPRPRPRPVNSPRP | 0.0541
14 | RRIRWRPPRLPRPRPRPVRRPRP | 0.365
15 | RRIRWRPPRLPRPRPRPVSAPRP | 0.316
16 | RRIRWRPPRLPRPRPRPVSFPRP | 0.169
17 | RRIRWRPPRLPRPRPRPVSKPRP | 0.0519
18 | RRIRWRPPRLPRPRPRPVTHPRP | -0.0273
19 | RRIRWRPPRLPRPRPRPVTVPRP | -0.194
20 | RRIRWRPPRLPRPRPRPVVAPRP | 0.28
21 | RRIRWRPPRLPRPRPRPVVQPRP | -0.131
22 | RRIRWRPPRLPRPRPRPVWSPRP | 0.163

Row | Sequence | shrunken log2 fold change
23 | RRIRWRPPRLPRPRPRPVYEPRP | -0.00561
24 | RRIRWRPPRLPRPRPRPVYGPRP | -0.083
25 | RRIRWRPPRLPRPRPRPVYIPRP | -0.0308
26 | RRIRWRPPRLPRPRPRPWCPPRP | 0.0505
27 | RRIRWRPPRLPRPRPRPWESPRP | -0.0449
28 | RRIRWRPPRLPRPRPRPWETPRP | -0.01
29 | RRIRWRPPRLPRPRPRPWKYPRP | -0.679
30 | RRIRWRPPRLPRPRPRPWLHPRP | -0.0248
31 | RRIRWRPPRLPRPRPRPWLPPRP | -0.188
32 | RRIRWRPPRLPRPRPRPWLVPRP | -0.237
33 | RRIRWRPPRLPRPRPRPWNQPRP | -0.067
34 | RRIRWRPPRLPRPRPRPWPMPRP | -0.0421
35 | RRIRWRPPRLPRPRPRPWPRPRP | 0.223
36 | RRIRWRPPRLPRPRPRPWPWPRP | -0.0737
37 | RRIRWRPPRLPRPRPRPWQVPRP | 0.172
38 | RRIRWRPPRLPRPRPRPWRGPRP | 0.389
39 | RRIRWRPPRLPRPRPRPWRKPRP | -0.139
40 | RRIRWRPPRLPRPRPRPWRWPRP | 0.0969
41 | RRIRWRPPRLPRPRPRPWSEPRP | -0.206
42 | RRIRWRPPRLPRPRPRPWSGPRP | 0.076
43 | RRIRWRPPRLPRPRPRPWSTPRP | 0.374
44 | RRIRWRPPRLPRPRPRPWTFPRP | -0.146

Row | Sequence | shrunken log2 fold change
45 | RRIRWRPPRLPRPRPRPWTGPRP | -0.0518
46 | RRIRWRPPRLPRPRPRPWTYPRP | -0.0122
47 | RRIRWRPPRLPRPRPRPWVPPRP | 0.00582
48 | RRIRWRPPRLPRPRPRPWWKPRP | -0.00743
49 | RRIRWRPPRLPRPRPRPWWSPRP | 0.173
50 | RRIRWRPPRLPRPRPRPWYRPRP | -0.174
51 | RRIRWRPPRLPRPRPRPYAEPRP | 0.258
52 | RRIRWRPPRLPRPRPRPYAKPRP | -0.41
53 | RRIRWRPPRLPRPRPRPYCPPRP | -0.441
54 | RRIRWRPPRLPRPRPRPYCYPRP | -0.562
55 | RRIRWRPPRLPRPRPRPYDAPRP | -0.189
56 | RRIRWRPPRLPRPRPRPYDEPRP | -0.114
57 | RRIRWRPPRLPRPRPRPYFFPRP | -0.245
58 | RRIRWRPPRLPRPRPRPYFGPRP | -0.168
59 | RRIRWRPPRLPRPRPRPYFNPRP | -1.06
60 | RRIRWRPPRLPRPRPRPYGCPRP | -0.189
61 | RRIRWRPPRLPRPRPRPYGLPRP | -0.23
62 | RRIRWRPPRLPRPRPRPYIDPRP | -0.23
63 | RRIRWRPPRLPRPRPRPYISPRP | -0.816
64 | RRIRWRPPRLPRPRPRPYLCPRP | -0.447
65 | RRIRWRPPRLPRPRPRPYMIPRP | -1.02
66 | RRIRWRPPRLPRPRPRPYMYPRP | -0.848

Row | Sequence | shrunken log2 fold change
67 | RRIRWRPPRLPRPRPRPYNDPRP | -0.194
68 | RRIRWRPPRLPRPRPRPYPMPRP | -0.128
69 | RRIRWRPPRLPRPRPRPYQGPRP | -0.0161
70 | RRIRWRPPRLPRPRPRPYTCPRP | -1.7
71 | RRIRWRPPRLPRPRPRPYTMPRP | -0.335
72 | RRIRWRPPRLPRPRPRPYTPPRP | -0.72
73 | RRIRWRPPRLPRPRPRPYTTPRP | -0.537
74 | RRIRWRPPRLPRPRPRPYVCPRP | -0.00902
75 | RRIRWRPPRLPRPRPRPYWDPRP | -0.415
76 | RRIRWRPPRLPRPRPRPYYMPRP | -0.258
77 | RRIRWRPPRLPRPRPRPYYWPRP | -1.31
78 | RRIRYRPPRLPRPRPRPADIPRP | -0.0376
79 | RRIRYRPPRLPRPRPRPADKPRP | -0.419
80 | RRIRYRPPRLPRPRPRPAFAPRP | -0.0121
81 | RRIRYRPPRLPRPRPRPAFYPRP | -0.513
82 | RRIRYRPPRLPRPRPRPAGMPRP | -0.0428
83 | RRIRYRPPRLPRPRPRPAGNPRP | -0.601
84 | RRIRYRPPRLPRPRPRPAGVPRP | 0.0619
85 | RRIRYRPPRLPRPRPRPAGWPRP | 0.366
86 | RRIRYRPPRLPRPRPRPAHRPRP | 0.0479
87 | RRIRYRPPRLPRPRPRPAHTPRP | -0.113
88 | RRIRYRPPRLPRPRPRPAIDPRP | -0.0997

Row | Sequence | shrunken log2 fold change
89 | RRIRYRPPRLPRPRPRPAIMPRP | -0.196
90 | RRIRYRPPRLPRPRPRPAINPRP | -0.051
91 | RRIRYRPPRLPRPRPRPAKFPRP | -0.331
92 | RRIRYRPPRLPRPRPRPAKWPRP | 0.0339
93 | RRIRYRPPRLPRPRPRPAMSPRP | -0.0191
94 | RRIRYRPPRLPRPRPRPANIPRP | -0.0107
95 | RRIRYRPPRLPRPRPRPANQPRP | -0.131
96 | RRIRYRPPRLPRPRPRPAPPPRP | 0.417
97 | RRIRYRPPRLPRPRPRPAPQPRP | 0.416
98 | RRIRYRPPRLPRPRPRPAPWPRP | -0.0627
99 | RRIRYRPPRLPRPRPRPAQFPRP | 0.0198
100 | RRIRYRPPRLPRPRPRPAQQPRP | 0.0788
101 | RRIRYRPPRLPRPRPRPAQVPRP | -0.0734
102 | RRIRYRPPRLPRPRPRPARMPRP | -0.0508
103 | RRIRYRPPRLPRPRPRPASMPRP | 0.0167
104 | RRIRYRPPRLPRPRPRPASTPRP | -0.0914
105 | RRIRYRPPRLPRPRPRPATMPRP | -0.69
106 | RRIRYRPPRLPRPRPRPAVLPRP | 0.0447
107 | RRIRYRPPRLPRPRPRPAVNPRP | 0.063
108 | RRIRYRPPRLPRPRPRPAYDPRP | -0.236
109 | RRIRYRPPRLPRPRPRPAYEPRP | -0.184

From the supplement of paper PMC9112550, “Optimization of the antimicrobial peptide Bac7 by deep mutational scanning” (BMC Biology, 2022)
